In patent US20160194391A1 (AstraZeneca / MedImmune, published 2016):

Tests used:
[1] = biological target: T1, human IL-6 (human, UniProt P05231 30-212); assay: cell-based or functional assay
[2] = biological target: T2, Primate IL-6 (Macaca mulatta, UniProt P51494); assay: cell-based or functional assay
T2 sequence (cytokine, looked up): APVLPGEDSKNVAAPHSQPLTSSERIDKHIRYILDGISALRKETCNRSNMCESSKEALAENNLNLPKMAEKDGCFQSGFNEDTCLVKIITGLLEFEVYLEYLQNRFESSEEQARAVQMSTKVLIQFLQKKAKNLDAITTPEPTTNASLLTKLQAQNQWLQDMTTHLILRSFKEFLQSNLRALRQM

[3] = biological target: T3, human IL-12 (human, UniProt P29459 23-219; P29460 23-328); assay: ELISA, human IL-12 coated on the plate; 13A8 is the anti IL-6 negative control [Binding to Human IL-12]
T3 construct: Bioassay used Prospec-Tany Cyt-362
T3 sequence (looked up) 1: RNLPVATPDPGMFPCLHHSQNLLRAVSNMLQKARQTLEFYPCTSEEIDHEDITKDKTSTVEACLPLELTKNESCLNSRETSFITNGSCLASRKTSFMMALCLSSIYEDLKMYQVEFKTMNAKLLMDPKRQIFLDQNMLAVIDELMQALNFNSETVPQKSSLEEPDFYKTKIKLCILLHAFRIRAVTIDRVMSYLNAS
T3 sequence (looked up) 2: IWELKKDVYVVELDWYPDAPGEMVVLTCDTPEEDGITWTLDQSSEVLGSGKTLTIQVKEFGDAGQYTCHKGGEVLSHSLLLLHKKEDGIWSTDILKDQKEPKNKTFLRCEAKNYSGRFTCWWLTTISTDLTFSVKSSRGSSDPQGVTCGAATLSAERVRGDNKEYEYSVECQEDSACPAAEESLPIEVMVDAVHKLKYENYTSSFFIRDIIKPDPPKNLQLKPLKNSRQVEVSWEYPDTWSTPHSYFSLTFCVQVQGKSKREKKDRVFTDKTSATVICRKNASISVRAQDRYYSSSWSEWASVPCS

[4] = biological target: T1, human IL-6; assay: SPR (SensiQ Pioneer), mAb captured on protein G, IL-6 as analyte (3×FLAG-IL-6 or IL-6 CYT-213, 1-100 nM), 25 C, 1:1 model
[5] = biological target: T4, monkey IL-12 (macaque) (macaque, UniProt P48091 23-219; P48095 23-328); assay: ELISA, monkey (macaque) IL-12 coated on the plate; 13A8 is the anti IL-6 negative control [Binding to Monkey IL-12]
T4 construct: also called macaque IL-12
T4 sequence (looked up) 1: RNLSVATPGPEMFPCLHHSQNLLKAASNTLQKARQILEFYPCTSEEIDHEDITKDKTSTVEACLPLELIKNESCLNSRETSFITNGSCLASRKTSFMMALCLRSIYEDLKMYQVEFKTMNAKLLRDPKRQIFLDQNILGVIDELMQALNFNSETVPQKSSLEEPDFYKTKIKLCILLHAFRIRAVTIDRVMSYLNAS
T4 sequence (looked up) 2: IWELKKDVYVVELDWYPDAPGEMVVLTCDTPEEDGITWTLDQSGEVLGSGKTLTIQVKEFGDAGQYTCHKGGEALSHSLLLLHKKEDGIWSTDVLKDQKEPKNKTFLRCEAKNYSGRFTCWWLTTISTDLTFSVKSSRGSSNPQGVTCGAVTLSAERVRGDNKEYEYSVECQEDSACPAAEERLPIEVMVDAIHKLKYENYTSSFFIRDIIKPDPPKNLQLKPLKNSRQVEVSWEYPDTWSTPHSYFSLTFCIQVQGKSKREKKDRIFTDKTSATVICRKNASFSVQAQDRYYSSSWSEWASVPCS

[6] = biological target: T5, human IL-12 p40 subunit (human, UniProt P29460 23-328); assay: ELISA, human IL-12 p40 subunit coated on the plate; 13A8 is the anti IL-6 negative control [Binding to human IL-12 p40]
T5 construct: Coated on ELISA plates
T5 sequence (looked up): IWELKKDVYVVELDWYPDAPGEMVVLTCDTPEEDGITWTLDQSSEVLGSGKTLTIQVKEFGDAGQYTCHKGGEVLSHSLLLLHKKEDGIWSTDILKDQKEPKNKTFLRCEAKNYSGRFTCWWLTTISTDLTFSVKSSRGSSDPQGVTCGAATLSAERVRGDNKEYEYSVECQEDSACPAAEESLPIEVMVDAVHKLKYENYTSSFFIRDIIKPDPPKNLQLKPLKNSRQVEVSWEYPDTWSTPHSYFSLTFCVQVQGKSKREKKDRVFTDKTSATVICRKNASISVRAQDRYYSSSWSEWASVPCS

EC50, inhibition of IL-6 induced B9 cell proliferation [1]: 0.034 ng/mL
IC50 (read off the curve) (B9 proliferation, OD570-600) [2]: ~0.4 ng/mL
binding result [3]: no binding
Kd [4]: 0.218 nM
koff [4]: 0.000138 s⁻¹
kon [4]: 633000 M⁻¹ s⁻¹
binding result [5]: no binding
binding result [6]: no binding
B1: 13A8 chimeric mAb (antibody, V domains shown)
VH: QSVEESGGRLVTPGTPLTLTCTVSGIDLSSYDMSWVRQAPGKGLEWIGYIYTDSSTWYANWAKGRFTISKTSSTTVDLKMTSLTTEDTATYFCAKGSTDYAFDTRLDLWGPGTLVTVSS
VL: NIVMTQTPSPVSGAVGGTVTINCQASQSISNELSWYQQKPGQPPRLLIYRASTLTSGVSSRFKGSGAGTQFTLTISGVECADAATYYCQQGYNSNDVDNVFGGGTKVVVVR
notes: HEK293; also called 13A8 clone
